# Measured values: patent publication US20250304707A1 (JOINT STOCK COMPANY BIOCAD, published 2025)
# What was measured:
# [1] = target: T1, human BCMA on the surface of RPMI8226 cells (human, UniProt Q02223 1-184); experiment: flow cytometry on RPMI8226 (BCMA+) cells, anti-human Fc-PE, one antibody concentration (not given)
# T1 construct: whole, on cells; also called BCMA receptor; RPMI8226 (BCMA+)
# T1 sequence (looked up): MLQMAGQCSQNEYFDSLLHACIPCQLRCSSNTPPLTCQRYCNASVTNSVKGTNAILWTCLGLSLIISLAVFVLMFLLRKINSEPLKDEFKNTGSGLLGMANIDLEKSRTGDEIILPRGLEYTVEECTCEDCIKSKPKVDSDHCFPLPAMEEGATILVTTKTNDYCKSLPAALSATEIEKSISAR
# [2] = target: T2, human BCMA (soluble analyte of Examples 8 and 14) (human, UniProt Q02223 1-54, limits assumed); experiment: BLI competition, APRIL/TNFSF13 (competitor) on AR2G sensors, premix 710 nM antibody + 71 nM human BCMA; without antibody 0.6588 nm
# T2 sequence (looked up): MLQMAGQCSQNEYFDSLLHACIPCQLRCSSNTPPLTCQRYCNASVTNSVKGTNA
Binder,Fluorescent signal level (sample/background) [1],Response (premix of antibody and BCMA on APRIL sensors) [2] [nm]
"Antibody 01-033 (antibody, human IgG1, kappa, L234A L235A, V domains shown, Full-length human IgG1 with L234A/L235A (pEE-HCLALA IgG1 vector) and CK light chain constant domain (pEE-CK), made in CHO-T cells; also called candidate 033) VH: EVQLVQSGGGLVQPGGSLRLSCAASGFTFSSGLMSWVRQAPGGFEWVSGYNGGSDRAGFADSVEGRFTISRDNAKNTLYLQMNSLKPEDTAVYYCARYIANSGTYYWDYWGQGTTVTVSS VL: not shown",14.7,-0.0078
"Antibody 01-001 (antibody, human IgG1, kappa, L234A L235A, V domains shown, Full-length human IgG1 with L234A/L235A (pEE-HCLALA IgG1 vector) and CK light chain constant domain (pEE-CK), made in CHO-T cells; also called candidate 01) VH: EVQLVQSGGGLVQPGGSLRLSCAVSGFTLSSSAMSWVRQAPGKGFEWVSGYNGGSDRAGFADSVEGRFTISRDNAKNTLYLQMNSLKPEDTAVYYCARYIANSGTYYWDYWGQGTLVTVSS VL: QPVLTQPPSASGTPGQRVTISCSGSSSNIGSNTVNWYQQLPGTAPKLLIYNDSQRPSGVPDQFSGSKSGTSASLAISGLQSDNEADYYCAAWDGSLNVWMFGGGTKVTVLR",10.7,-0.0081
"Antibody 01-025 (antibody, human IgG1, kappa, L234A L235A, V domains shown, Full-length human IgG1 with L234A/L235A (pEE-HCLALA IgG1 vector) and CK light chain constant domain (pEE-CK), made in CHO-T cells; also called candidate 025) VH: EVQLVQSGGGLVQSGGSLRVSCAASGFTFSSGLMSWVRQAPGKGFEWVSGYNGGSDRAGYTDSVKGRFTISRDNAKNTLYLQMNSLKPEDTAVYYCARYIANSGTYYWDYWGQGTTVTVSS VL: QPVLTQPPSVSEAPRQRVTISCSGSSSNIGNNAVNWYQQLPGKAPKLLIYSTNQRPSGVPDRFSGSKSGTSASLAISGLQSEDEADYYCAAWDDRVSAWLFGGGTKLTVLR",15,0.0259
"Antibody 01-021 (antibody, human IgG1, kappa, L234A L235A, V domains shown, Full-length human IgG1 with L234A/L235A (pEE-HCLALA IgG1 vector) and CK light chain constant domain (pEE-CK), made in CHO-T cells; also called candidate 021) VH: QVQLVQSGGGLVQPGGSLRLSCAASGFTFSSGLMSWVRQAPGKGFEWVSGYNGGSDRAGFADSVEGRFTISRDNAKNTLYLQMNSLKPEDTAVYYCARYIANSGTYYWDYWGQGTLVTVSS VL: not shown",9.99,-0.0015
"Antibody 01-027 (antibody, human IgG1, kappa, L234A L235A, V domains shown, Full-length human IgG1 with L234A/L235A (pEE-HCLALA IgG1 vector) and CK light chain constant domain (pEE-CK), made in CHO-T cells; also called candidate 027) VH: EVQLVQSGGGLVQSGGSLRVSCAASGFTFSSGLMSWVRQAPGKGFEWVSGYNGGSDRAGYTDSVKGRFTISRDNAKNTLYLQMNSLKPEDTAVYYCARYIANSGTYYWDYWGQGTTVTVSS VL: QAVLTQPPSASGTPGQRVSISCSGGISNIGSNIVNWYQHLPGTAPKLLIYSGNQRPSGVPDRFSGSKSGTSASLAISGLQSEDEADYYCSSWDSDLRNWVFGGGTKLTVLR",19.1,0.017
"Antibody 01-030 (antibody, human IgG1, kappa, L234A L235A, V domains shown, Full-length human IgG1 with L234A/L235A (pEE-HCLALA IgG1 vector) and CK light chain constant domain (pEE-CK), made in CHO-T cells; also called candidate 030) VH: EVQLVQSGGGLVQPGGSLRVSCAASGFSFSSGLMSWVRQAPGKGFEWVSGYNGGSDRAGFADSVEGRFTISRDNAKNTLYLQMNSLKPEDTAVYYCARYIANSGTYYWDYWGQGTLVTVSS VL: QSALTQPPSASGTPGQRVTISCSGSISNIGSNTVNWYQHLPGTAPKLLIYNHNQRPSGVPDRFSGSTSGTSASLAISGLQSEDEADYFCATWDDSLSAWLFGGGTKLTVLR",16.5,-0.0066
"Antibody 01-016 (antibody, human IgG1, kappa, L234A L235A, V domains shown, Full-length human IgG1 with L234A/L235A (pEE-HCLALA IgG1 vector) and CK light chain constant domain (pEE-CK), made in CHO-T cells; also called candidate 016) VH: EVQLVQSGGGLVQPGGSLRLSCAVSGFTFSSSVMSWVRQAPGKGFEWVSGYNGGSDRAGFADSVEGRFTISRDNAKNTLYLQMNSLKPEDTAVYYCARYIANSGTYYWDYWGQGTLVTVSS VL: QPVLTQPPSVSEAPRQRVTISCSGSSSNIGNNAVNWYQQLPGKAPKLLIFKNNQRPSGVPDRFSGSKSGTSASLVISGLQSEDEADYYCAAWDGSLNAWMFGGGTKLTVLR",7.87,-0.0062
"Antibody 01-037 (antibody, human IgG1, kappa, L234A L235A, V domains shown, Full-length human IgG1 with L234A/L235A (pEE-HCLALA IgG1 vector) and CK light chain constant domain (pEE-CK), made in CHO-T cells; also called candidate 037) VH: EVQLVQSGGGLVQSGGSLRVSCAASGFTFSSGLMSWVRQAPGKGFEWVSGYNGGSDRAGYTDSVKGRFTISRDNAKNTLYLQMNSLKPEDTAVYYCARYIANSGTYYWDYWGQGTTVTVSS VL: SYVLTQPPSASGTPGQRVTISCSGTRSNIGTNTVNWYQQLPGTAPKLLIYRNNQRPSGVPDRFSGSKSGTSASLAISGLQSEDEADYYCAVWDDRVSAWLFGGGTKLTVLR",11.7,0.0304
"Antibody 01-006 (antibody, human IgG1, kappa, L234A L235A, V domains shown, Full-length human IgG1 with L234A/L235A (pEE-HCLALA IgG1 vector) and CK light chain constant domain (pEE-CK), made in CHO-T cells; also called candidate 06) VH: EVQLVQSGGGLVQPGGSLRLSCSASGFTFSSGLMSWVRQAPGKGFEWVSGYNGGSDRAGYTDSVKGRFTISRDNAKNTLYLQMNSLKPEDTAVYYCARYIANSGTYYWDYWGQGTLVTVSS VL: QAVLTQPPSVSGTPGQRVTISCSGSTSNIGHRTVNWYQQFPGAAPKLLIYRNNQRPSGVPARFSGSKSGTSASLAISGLQSEDEADYHCAAWDDSLTAWVFGGGTQLTVLR",9.61,0.0464
"Antibody 01-026 (antibody, human IgG1, kappa, L234A L235A, V domains shown, Full-length human IgG1 with L234A/L235A (pEE-HCLALA IgG1 vector) and CK light chain constant domain (pEE-CK), made in CHO-T cells; also called candidate 026) VH: EVQLVQSGGGLVQSGGSLRVSCAASGFTFSSGLMSWVRQAPGKGFEWVSGYNGGSDRAGYTDSVKGRFTISRDNAKNTLYLQMNSLKPEDTAVYYCARYIANSGTYYWDYWGQGTTVTVSS VL: QSVLTQPPSVSGAPGQRVTISCTGSSSNIGAGYDVHWYQQLPGTAPKLVIYGNTNRPSGVPDRFSGSKSGTSASLAISGLQSEDEADYYCAAWDDSLNGWVFGGGTKLTVLR",12.1,0.0111
"Antibody 01-022 (antibody, human IgG1, kappa, L234A L235A, V domains shown, Full-length human IgG1 with L234A/L235A (pEE-HCLALA IgG1 vector) and CK light chain constant domain (pEE-CK), made in CHO-T cells; also called candidate 022) VH: EVQLVQSGGGLVQSGGSLRVSCAASGFTFSSGLMSWVRQAPGKGFEWVSGYNGGSDRAGYTDSVKGRFTISRDNAKNTLYLQMNSLKPEDTAVYYCARYIANSGTYYWDYWGQGTTVTVSS VL: not shown",9.57,0.013
"Antibody 01-024 (antibody, human IgG1, kappa, L234A L235A, V domains shown, Full-length human IgG1 with L234A/L235A (pEE-HCLALA IgG1 vector) and CK light chain constant domain (pEE-CK), made in CHO-T cells; also called candidate 024) VH: EVQLVQSGGGLVQSGGSLRVSCAASGFTFSSGLMSWVRQAPGKGFEWVSCYNGGSDRAGYTDSVKGRFTISRDNAKNTLYLQMNSLKPEDTAVYYCARYIANSGTYYWDYWGQGTTVTVSS VL: QAVLTQPPSASGTPGQRVSISCSGGISNIGSNIVNWYQHLPGTAPKLLIYSGNQRPSGVPDRFSGSKSGTSASLAISGLQSEDEADYYCSSWDSDLRNWVFGGGTKLTVLR",19.9,0.0151
